Our source for the IC50 and Kd values is US20200157212A1 (Pfizer, published 2020).

Changes are numbered by the printed parent chain.

First the molecules themselves.
T1: Terbium (Tb) labeled-SNAP tagged ROBO2 expressed on HEK293 cells (Homo sapiens (Human), UniProt Q9HCK4 22-1378, terbium label on the SNAP tag)
T1 construct: also called Tb-labeled ROBO2 cells; ROBO2 expressing cells; not shown: SNAP tag
T1 sequence: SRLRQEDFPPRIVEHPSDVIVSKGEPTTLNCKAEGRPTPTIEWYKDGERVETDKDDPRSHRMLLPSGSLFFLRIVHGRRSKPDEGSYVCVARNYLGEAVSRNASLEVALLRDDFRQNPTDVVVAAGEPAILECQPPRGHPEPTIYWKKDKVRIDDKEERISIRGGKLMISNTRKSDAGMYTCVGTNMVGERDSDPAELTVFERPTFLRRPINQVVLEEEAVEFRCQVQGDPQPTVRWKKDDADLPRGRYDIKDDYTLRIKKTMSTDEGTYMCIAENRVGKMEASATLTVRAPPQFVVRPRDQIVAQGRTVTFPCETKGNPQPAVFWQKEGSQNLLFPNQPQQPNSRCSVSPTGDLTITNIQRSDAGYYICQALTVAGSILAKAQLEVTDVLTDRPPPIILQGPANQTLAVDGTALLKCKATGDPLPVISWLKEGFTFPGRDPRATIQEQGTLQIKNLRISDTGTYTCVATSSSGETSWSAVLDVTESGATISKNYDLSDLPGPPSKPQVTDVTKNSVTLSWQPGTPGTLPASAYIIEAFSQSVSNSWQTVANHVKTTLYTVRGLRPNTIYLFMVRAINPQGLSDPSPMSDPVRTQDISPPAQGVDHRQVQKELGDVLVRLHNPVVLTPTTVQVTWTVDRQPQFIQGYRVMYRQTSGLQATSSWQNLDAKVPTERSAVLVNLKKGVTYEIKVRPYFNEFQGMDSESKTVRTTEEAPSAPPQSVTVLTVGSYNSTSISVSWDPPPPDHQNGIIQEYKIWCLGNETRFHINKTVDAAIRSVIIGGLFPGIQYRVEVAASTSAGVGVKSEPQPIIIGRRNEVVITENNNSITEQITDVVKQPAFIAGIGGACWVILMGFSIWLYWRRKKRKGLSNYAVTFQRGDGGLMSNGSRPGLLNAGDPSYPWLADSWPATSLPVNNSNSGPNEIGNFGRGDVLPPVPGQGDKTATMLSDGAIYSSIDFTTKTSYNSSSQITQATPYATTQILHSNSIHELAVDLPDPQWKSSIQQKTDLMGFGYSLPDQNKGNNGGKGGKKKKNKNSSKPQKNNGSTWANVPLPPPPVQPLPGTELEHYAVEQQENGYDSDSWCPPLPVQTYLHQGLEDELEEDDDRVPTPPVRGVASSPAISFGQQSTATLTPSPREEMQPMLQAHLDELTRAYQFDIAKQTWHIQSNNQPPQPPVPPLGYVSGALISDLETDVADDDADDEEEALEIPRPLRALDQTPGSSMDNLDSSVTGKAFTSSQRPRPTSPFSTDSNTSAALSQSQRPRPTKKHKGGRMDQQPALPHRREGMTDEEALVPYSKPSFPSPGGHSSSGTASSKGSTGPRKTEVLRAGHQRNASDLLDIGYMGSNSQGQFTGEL

T2: Human ROBO2 Ig1-Ig2-His (human, UniProt Q9HCK4 31-220)
T2 construct: the His tag is named only in the SPR paragraphs; the Octet and ELISA paragraphs print 'ROBO2 Ig1-Ig2' without a tag; also called ROBO2 Ig1-2; Human ROBO2 Ig 1,2
T2 sequence: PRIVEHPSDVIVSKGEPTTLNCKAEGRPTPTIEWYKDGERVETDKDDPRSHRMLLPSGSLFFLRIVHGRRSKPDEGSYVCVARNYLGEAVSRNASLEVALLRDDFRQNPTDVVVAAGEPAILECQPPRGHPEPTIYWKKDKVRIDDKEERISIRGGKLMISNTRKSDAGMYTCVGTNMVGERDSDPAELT

B1: Abcs35-A (antibody, human IgG1, kappa)
heavy: EVQLVQSGAEVKKPGASVKVSCKASGYTFTGYYMHWVRQAPGQGLEWMGWINPKNGDTEFPQKFQGRVTMTRDTSITTAYMDLSRLRSDDTAVYYCARESGDDAFDIWGQGTMVTVSSASTKGPSVFPLAPSSKSTSGGTAALGCLVKDYFPEPVTVSWNSGALTSGVHTFPAVLQSSGLYSLSSVVTVPSSSLGTQTYICNVNHKPSNTKVDKKVEPKSCDKTHTCPPCPAPEAAGAPSVFLFPPKPKDTLMISRTPEVTCVVVDVSHEDPEVKFNWYVDGVEVHNAKTKPREEQYNSTYRVVSVLTVLHQDWLNGKEYKCKVSNKALPAPIEKTISKAKGQPREPQVYTLPPSREEMTKNQVSLTCLVKGFYPSDIAVEWESNGQPENNYKTTPPVLDSDGSFFLYSKLTVDKSRWQQGNVFSCSVMHEALHNHYTQKSLSLSPGK
light: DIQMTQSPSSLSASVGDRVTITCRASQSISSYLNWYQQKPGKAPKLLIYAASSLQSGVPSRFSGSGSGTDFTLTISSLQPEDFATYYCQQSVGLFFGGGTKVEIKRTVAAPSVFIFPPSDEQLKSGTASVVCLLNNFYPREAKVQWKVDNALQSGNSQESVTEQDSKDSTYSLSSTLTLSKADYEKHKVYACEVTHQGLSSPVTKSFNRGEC
notes: germlined variant of Abcs35; also called Abcs-A
B2: Abcs35-M (antibody, human IgG1, kappa)
heavy: B1 heavy with E1Q, T77S
light: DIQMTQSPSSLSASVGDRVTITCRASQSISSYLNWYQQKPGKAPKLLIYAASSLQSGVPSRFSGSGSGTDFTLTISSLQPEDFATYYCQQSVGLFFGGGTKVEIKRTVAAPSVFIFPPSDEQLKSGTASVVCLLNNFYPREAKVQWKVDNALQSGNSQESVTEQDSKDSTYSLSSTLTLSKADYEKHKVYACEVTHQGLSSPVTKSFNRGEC
notes: germlined variant of Abcs35
B3: Abcs35-B (antibody, human IgG1, kappa)
heavy: B1 heavy with T77S
light: DIVMTQSPSSLSASVGDRVTITCRASQSISSYLNWYQQKPGKAPKLLIYAASSLQSGVPSRFSGSGSGTDFTLTISSLQPEDFATYYCQQSVGLFFGGGTKVEIKRTVAAPSVFIFPPSDEQLKSGTASVVCLLNNFYPREAKVQWKVDNALQSGNSQESVTEQDSKDSTYSLSSTLTLSKADYEKHKVYACEVTHQGLSSPVTKSFNRGEC
notes: germlined variant of Abcs35
B4: Abcs35-F (antibody, human IgG1, kappa)
heavy: B1 heavy with E1Q, T77S
light: B3 light
notes: germlined variant of Abcs35
B5: Abcs35-L (antibody, human IgG1, kappa)
heavy: B1 heavy with E1Q
light: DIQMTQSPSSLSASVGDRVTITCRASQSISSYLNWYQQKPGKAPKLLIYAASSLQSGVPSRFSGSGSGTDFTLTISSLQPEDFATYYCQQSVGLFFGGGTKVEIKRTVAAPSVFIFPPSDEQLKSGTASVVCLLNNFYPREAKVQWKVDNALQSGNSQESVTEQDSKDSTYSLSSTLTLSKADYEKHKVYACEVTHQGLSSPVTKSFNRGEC
notes: germlined variant of Abcs35
B6: Abcs35-I (antibody, human IgG1, kappa)
heavy: B1 heavy with T77S
light: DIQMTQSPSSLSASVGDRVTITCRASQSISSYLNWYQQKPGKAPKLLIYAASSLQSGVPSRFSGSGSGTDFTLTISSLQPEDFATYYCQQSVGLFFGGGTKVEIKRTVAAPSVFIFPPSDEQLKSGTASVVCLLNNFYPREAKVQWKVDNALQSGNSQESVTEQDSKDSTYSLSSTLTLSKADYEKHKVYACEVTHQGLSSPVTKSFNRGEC
notes: germlined variant of Abcs35
B7: Abcs35-E (antibody, human IgG1, kappa)
heavy: B1 heavy with E1Q
light: B3 light
notes: germlined variant of Abcs35; also called Abcs35-eE
B8: Abcs35-G (antibody, human IgG1, kappa)
heavy: B1 heavy with E1Q, D82E
light: B3 light
notes: germlined variant of Abcs35
B9: Abcs35-D (antibody, human IgG1, kappa)
heavy: B1 heavy with T77S, D82E
light: B3 light
notes: germlined variant of Abcs35
B10: Abcs35-K (antibody, human IgG1, kappa)
heavy: B1 heavy with T77S, D82E
light: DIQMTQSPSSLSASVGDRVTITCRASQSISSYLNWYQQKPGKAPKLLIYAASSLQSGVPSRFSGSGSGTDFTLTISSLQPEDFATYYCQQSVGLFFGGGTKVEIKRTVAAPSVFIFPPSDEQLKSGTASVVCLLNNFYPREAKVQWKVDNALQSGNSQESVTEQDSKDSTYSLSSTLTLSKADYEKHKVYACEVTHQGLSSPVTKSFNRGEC
notes: germlined variant of Abcs35
B11: Abcs35-N (antibody, human IgG1, kappa)
heavy: B1 heavy with E1Q, D82E
light: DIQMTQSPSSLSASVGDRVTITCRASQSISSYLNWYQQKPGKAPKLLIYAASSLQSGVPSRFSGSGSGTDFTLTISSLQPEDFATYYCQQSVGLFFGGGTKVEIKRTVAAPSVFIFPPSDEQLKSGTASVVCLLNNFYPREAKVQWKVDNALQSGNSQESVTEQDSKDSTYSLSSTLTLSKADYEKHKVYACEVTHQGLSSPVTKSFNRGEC
notes: germlined variant of Abcs35
B12: Abcs35-H (antibody, human IgG1, kappa)
heavy: B1 heavy with E1Q, T77S, D82E
light: B3 light
notes: germlined variant of Abcs35
B13: Abcs35-C (antibody, human IgG1, kappa)
heavy: B1 heavy with D82E
light: B3 light
notes: germlined variant of Abcs35

The target in one test is T1, Terbium (Tb) labeled-SNAP tagged ROBO2 …. The experiment in a line: HTRF competition, competitor d2-SLIT2-N, ROBO2 HEK293 cells. The method, then: A ROBO2-SLIT2-N homogenous time resolved fluorescence (HTRF) assay was used to identify antibodies that were capable of blocking SLIT2-N binding to ROBO2. In this assay, terbium (Tb) labeled-SNAP tagged ROBO2 expressing HEK293 cells were incubated with 5 nM d2-labeled SLIT-2N in the presence of 1 nM anti-ROBO2 antibodies for 1 hour. After incubation, fluorescence at 665 nm and 620 nm was measured on an Envision multilabel plate reader. […] Maximal signal was defined as the HTRF ratio of Tb-labeled ROBO2 cells with d2-labeled SLIT2-N in the absence of antibody, the minimum signal was defined as the HTRF ratio of Tb-labeled ROBO2 expressing HEK293 cells only. One nanomolar (nM) parental antibody, 93H2, was unable to block the HTRF assay, therefore this concentration was selected to identify clones with a higher affinity than 93H2 (Table 2, HTRF Ratio column). […] Antibodies derived from chain (Abcs series) or CDR shuffling (CTIR-2 series) were evaluated in 11-point, 5-fold dilution series with a top concentration of 1500 nM (Table 2 HTRF IC₅₀).
Neutralization of SLIT2-N binding to ROBO2 was assessed ROBO2:SLIT2-N homogenous time resolved fluorescence (HTRF) assay as described in Example 2. Briefly the HTRF assay was performed as follows: terbium (Tb) labeled-SNAP tagged ROBO2 expressing HEK293 cells were incubated with d2-labeled SLIT-2N in the presence of anti-ROBO2 antibodies for 1 hour. After incubation, fluorescence at 665 nm and 620 nm was measured on an Envision multi-label plate reader. […] Maximal signal was defined as the HTRF ratio of Tb-labeled ROBO2 cells with d2-labeled SLIT2-N in the absence of antibody, the minimum signal was defined as the HTRF ratio of Tb-labeled ROBO2 expressing HEK293 cells only.
B1 had an IC50 of 72.8 pM.

B2 came in with an IC50 of 59.1 pM.

B3 gave an IC50 of 76.5 pM.

B4: the IC50 is 76.6 pM.

Molecule B5 displayed a half-maximal inhibitory concentration (IC50) of 79.6 pM.

In turn, B6 displayed a half-maximal inhibitory concentration (IC50) of 74.5 pM.

On to B7, for which the 50% inhibitory concentration (IC50) worked out at 65.1 pM.

As to B8, the IC50 was 75.4 pM.

B9: the IC50 is 63.9 pM.

On to B10, for which the IC50 worked out at 75.2 pM.

In turn, B11 came in with an IC50 of 90.3 pM.

In turn, B12 registered an IC50 of 82.9 pM.

On to B13, for which the IC50 was found to be 74 pM.

For the next test, the target named is T2, Human ROBO2 Ig1-Ig2-His. The experiment in a line: SPR, antibody on CM5 chip, ROBO2 Ig1-Ig2-His. The method, then: Based upon several criteria, Abcs25 and Abcs35 were selected for further characterization. Using flow cytometry, improvement in the binding EC₅₀ to human ROBO2 relative to the parental 93H2 was evaluated. Starting at 6.7 nM, 11-point, 3-fold dilution series were made for each antibody and used to stain HEK293 overexpressing human ROBO2 as described above for the ROBO2 fold selectivity (Example 2). […] In addition to measuring improved binding to human ROBO2, it was important to ensure that high affinity binding to both cynomolgus monkey ROBO2 and rat ROBO2 was maintained. Using HEK293 cells overexpressing either cynomolgus monkey ROBO2 or rat ROBO2, the relative dose-dependent binding of 93H2, Abcs25 and Abcs35 was evaluated as described above. High affinity binding to both cynomolgus monkey and rat ROBO2 was maintained in Abcs25 and Abcs35 (Table 4). […] Briefly, Abcs35 was immobilized to 300 resonance units (RU) on a CM5 chip. Association of ROBO2 Ig1-Ig2-His (ROBO2) was measured over 5 minutes and dissociation was followed for a period of 10 minutes.
Affinity was measured by standard SPR methods as described in Example 3. Briefly, antibodies were immobilized to a specific measure of resonance units (RU) on a CM5 chip. Association of ROBO2 Ig1-Ig2-His (ROBO2) and dissociation will be followed for a period of time.
Molecule B1 came in with a Kd of 99 pM.

B2 showed a Kd of 217 pM.

As to B3, the Kd is 123 pM.

B4: the affinity, expressed as Kd, was 194 pM.

Regarding B5, the Kd was 149 pM.

For the molecule B6, the dissociation constant Kd is 145 pM.

B7 showed a Kd of 128 pM.

B8 had an equilibrium dissociation constant (Kd) of 131 pM.

B9 registered a dissociation constant Kd of 125 pM.

For the molecule B10, binding was characterised by a dissociation constant (Kd) of 142 pM.

The molecule B11 registered a Kd of 146 pM.

On to B12, for which the affinity, expressed as Kd, was 194 pM.

As to B13, the affinity, expressed as Kd, was 82.1 pM.
